Target: T1, human complement component C5 (human, UniProt P01031 19-673; P01031 678-1676)
T1 construct: Purified human C5 was amine-coupled to a CM3 sensor chip for SPR; In the CH50 assay the C5 is the one present in pooled normal human serum; Native C5 is a disulphide-linked two-chain protein made from one precursor; also called human C5
Experiment: SPR (BIAcore 2000, 25 C), human C5 amine-coupled to a CM3 chip, Coversin injected at 0-96 nM, global Langmuir fit

T1 sequence (P01031 19-673 limits assumed, chain 1 of 2): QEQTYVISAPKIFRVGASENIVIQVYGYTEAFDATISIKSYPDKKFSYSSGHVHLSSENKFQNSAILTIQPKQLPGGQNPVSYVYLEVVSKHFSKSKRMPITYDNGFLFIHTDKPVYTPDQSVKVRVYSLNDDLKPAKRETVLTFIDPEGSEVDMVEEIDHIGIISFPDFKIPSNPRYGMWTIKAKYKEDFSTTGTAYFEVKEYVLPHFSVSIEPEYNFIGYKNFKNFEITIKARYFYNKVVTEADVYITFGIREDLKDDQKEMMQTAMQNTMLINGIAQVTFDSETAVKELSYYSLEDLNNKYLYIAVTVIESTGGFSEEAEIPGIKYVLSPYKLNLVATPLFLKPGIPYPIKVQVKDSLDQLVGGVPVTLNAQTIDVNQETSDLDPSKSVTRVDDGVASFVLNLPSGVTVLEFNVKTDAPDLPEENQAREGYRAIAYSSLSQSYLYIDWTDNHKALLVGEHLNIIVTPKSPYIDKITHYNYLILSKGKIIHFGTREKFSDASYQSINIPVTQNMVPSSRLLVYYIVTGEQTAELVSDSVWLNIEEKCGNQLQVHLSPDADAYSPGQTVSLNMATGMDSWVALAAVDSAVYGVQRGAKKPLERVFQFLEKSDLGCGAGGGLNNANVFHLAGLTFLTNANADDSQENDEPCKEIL
T1 sequence (P01031 678-1676 limits assumed, chain 2 of 2): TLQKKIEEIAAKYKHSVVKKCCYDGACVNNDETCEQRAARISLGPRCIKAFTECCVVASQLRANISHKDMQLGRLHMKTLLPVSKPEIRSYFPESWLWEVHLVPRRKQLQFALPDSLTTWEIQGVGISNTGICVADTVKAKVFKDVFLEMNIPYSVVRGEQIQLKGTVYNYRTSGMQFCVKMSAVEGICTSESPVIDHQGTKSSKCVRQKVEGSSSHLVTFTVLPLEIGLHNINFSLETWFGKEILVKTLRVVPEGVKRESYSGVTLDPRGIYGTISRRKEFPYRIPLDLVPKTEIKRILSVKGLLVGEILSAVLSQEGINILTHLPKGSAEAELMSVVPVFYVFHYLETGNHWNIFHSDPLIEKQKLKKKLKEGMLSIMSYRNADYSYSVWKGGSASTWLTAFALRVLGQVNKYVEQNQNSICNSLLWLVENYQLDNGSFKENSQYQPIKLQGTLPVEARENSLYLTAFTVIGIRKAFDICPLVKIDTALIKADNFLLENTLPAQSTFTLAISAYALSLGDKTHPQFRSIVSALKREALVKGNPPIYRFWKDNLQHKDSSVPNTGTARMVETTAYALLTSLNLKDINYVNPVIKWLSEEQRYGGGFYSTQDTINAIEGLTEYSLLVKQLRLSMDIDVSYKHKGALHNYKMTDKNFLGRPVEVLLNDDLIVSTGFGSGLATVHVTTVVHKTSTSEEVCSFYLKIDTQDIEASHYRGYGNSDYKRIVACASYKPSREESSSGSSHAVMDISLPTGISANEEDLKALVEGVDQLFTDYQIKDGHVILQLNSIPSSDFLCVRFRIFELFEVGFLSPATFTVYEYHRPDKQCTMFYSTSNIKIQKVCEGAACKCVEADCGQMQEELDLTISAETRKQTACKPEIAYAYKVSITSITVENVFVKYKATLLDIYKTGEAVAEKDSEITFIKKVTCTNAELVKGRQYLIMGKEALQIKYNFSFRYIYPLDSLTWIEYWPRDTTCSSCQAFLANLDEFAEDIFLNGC

B1: wild type Coversin (Ornithodoros moubata) (other)
chain: DSESDCTGSEPVDAFQAFSEGKEAYVLVRSTDPKARDCLKGEPAGEKQDNTLPVMMTFKNGTDWASTDWTFTLDGAKVTATLGNLTQNREVVYDSQSHHCHVDKVEKEVPDYEMWMLDAGGLEVEVECCRQKLEELASGRNQMYPHLKDC
notes: also called Coversin wild type; unmodified Coversin polypeptide
With B1 the Kd was 1.45 nM.
